Data from publication PMC6625990, “Structural underpinnings of Ric8A function as a G-protein α-subunit chaperone and guanine-nucleotide exchange factor” (Nature Communications, 2019).

How the values were obtained:
[1] = molecular target: full-length Avi-tagged Gαt, P04695; test: BLI (steady-state); conditions: chain shown with the change
[2] = molecular target: full-length Avi-tagged Gαt, P04695; test: BLI (steady-state binding curve); conditions: chain shown with the change; Avi-tagged Gαt coupled to a streptavidin biosensor; parent: 24 nM

Chain of full-length Avi-tagged Gαt, P04695 (P04695 whole entry): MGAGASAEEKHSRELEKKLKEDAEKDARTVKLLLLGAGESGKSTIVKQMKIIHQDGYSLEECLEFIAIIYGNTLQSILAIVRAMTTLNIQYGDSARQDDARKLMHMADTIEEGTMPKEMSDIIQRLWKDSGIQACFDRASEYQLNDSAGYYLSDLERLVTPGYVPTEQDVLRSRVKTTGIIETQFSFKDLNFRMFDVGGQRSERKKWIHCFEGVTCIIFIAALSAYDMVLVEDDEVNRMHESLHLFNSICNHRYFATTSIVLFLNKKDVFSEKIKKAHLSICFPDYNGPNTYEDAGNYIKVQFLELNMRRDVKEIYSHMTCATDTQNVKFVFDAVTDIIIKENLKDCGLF

B1: bovine Ric8A1–492, Q5E9J8 F169R (protein)
chain: MEPRAVADALETGEEDVVMEALRAYNRENSQSFTFDDAQQEDRKRLAKLLVSVLEQGLPPSRRVIWLQSIRILSRDRSCLDSFTSRRSLQALACYAGISASQGSVPEPLNMDVVLESLKCLCNLVLSSPVAQALAAEAGLVVRLAERVGLCRQSSFPHDVQFFDLRLLRLLTALRTDVRQQLFQELQGVRLLTRALELTLGMTEGERHPELLPPQETERAMEILKVLFNITFDSIKREVDEEDAALYRHLGTLLRHCVMLAAAGDRTEELHGHAVNLLGNLPVKCLDVLLTLEPHEGSLEFLGVNMDVIRVLLSFMEKRLHQTHRLKESVAPVLSVLTECARMHRPARKFLKAQVLPPLRDVRTRPEVGELLRNKLVRLMTHLDTDVKRVAAEFLFVLCSESVPRFIKYTGYGNAAGLLAARGLMAGGRPEGQYSEDEDTDTDEYKEAKASINPVTGRVEEKPPNPMEGMTEEQKEHEAMKLVNMFDKLSRH
[1]
  Kd: 1.8 µM
[2]
  Kd: 1.7 µM

B2: bovine Ric8A1–492, Q5E9J8 A173W (protein)
chain: MEPRAVADALETGEEDVVMEALRAYNRENSQSFTFDDAQQEDRKRLAKLLVSVLEQGLPPSRRVIWLQSIRILSRDRSCLDSFTSRRSLQALACYAGISASQGSVPEPLNMDVVLESLKCLCNLVLSSPVAQALAAEAGLVVRLAERVGLCRQSSFPHDVQFFDLRLLFLLTWLRTDVRQQLFQELQGVRLLTRALELTLGMTEGERHPELLPPQETERAMEILKVLFNITFDSIKREVDEEDAALYRHLGTLLRHCVMLAAAGDRTEELHGHAVNLLGNLPVKCLDVLLTLEPHEGSLEFLGVNMDVIRVLLSFMEKRLHQTHRLKESVAPVLSVLTECARMHRPARKFLKAQVLPPLRDVRTRPEVGELLRNKLVRLMTHLDTDVKRVAAEFLFVLCSESVPRFIKYTGYGNAAGLLAARGLMAGGRPEGQYSEDEDTDTDEYKEAKASINPVTGRVEEKPPNPMEGMTEEQKEHEAMKLVNMFDKLSRH
[1]
  Kd: > 10 µM
[2]
  Kd: > 10 µM
